Several values for one entry are separate records, joined by “and”; a condition that tells them apart may be missing. Identical values can stand only once.
Experiments:
[1] = biological target: wild type full length human Hsp90β with non-cleavable His6-tag (human); assay: AUC; sedimentation at 42,000 rpm, 20°C, 16 hours, 7.2 uM Hsp90 in 25 Na-phosphate pH 7.2, 150 mM NaCl, 150 mM KCl, 5 mM DTT, protease inhibitor; absorbance optics; SedFit
[2] = biological target: wild type full length human Hsp90β with non-cleavable His6-tag (human); assay: SEC-MALS; SEC-MALLS on Superdex 200, 0.35 ml/min, 25 mM Na-phosphate pH 7.2, 150 mM NaCl, 5 mM DTT; 10 ul of ~29 g/l loaded; legend: 2.2 uM monomer concentration

stoichiometry N [1]: 2 and 4
stoichiometry N [2]: 2
Substance: wild type full length human Hsp90β with non-cleavable His6-tag (natural protein; other documents disagree on this pair)
